# Test results from PMC8184657.
# Biological target: insulin (bovine insulin) (bovine)
# Experiment: ITC
substance,measurement,value
IS1 (tetrapeptide VYYR),Ka,0.00346 M⁻¹
same,dH,-18.7 kcal/mol
